Here are results for 9 sequences from article PMC9029033.

The target in the series is T1, VPA0041-His (Vibrio parahaemolyticus RIMD 2210633) (UniProt Q87K57).
T1 sequence: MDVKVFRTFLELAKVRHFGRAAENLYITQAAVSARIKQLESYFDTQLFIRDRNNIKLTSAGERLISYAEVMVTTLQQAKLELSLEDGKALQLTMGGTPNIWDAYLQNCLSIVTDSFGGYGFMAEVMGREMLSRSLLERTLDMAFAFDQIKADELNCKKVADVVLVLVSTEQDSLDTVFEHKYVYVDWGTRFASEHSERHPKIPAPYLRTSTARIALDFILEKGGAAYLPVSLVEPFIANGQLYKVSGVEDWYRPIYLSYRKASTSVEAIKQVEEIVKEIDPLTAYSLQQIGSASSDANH
Nature of the series: EMSA. To be noted: EMSA: 20 uL, 10 ng probe (15 ng in Fig 5 legend), 1 ug poly(dI:dC), 4 uL 5x binding buffer (10 mM NaCl, 0.1 mM DTT, 0.1 mM EDTA, 10 mM Tris, pH 7.4), 25 C …. Background: In EMSA bound probe runs differently from free probe, usually more slowly.
For the sequence “TGCCTGCAGGTCGACGATTTAGTCGCCTTGTCTTATAGGGAAACACTAGATGTTTTCGAGAGGAAGGCGGAACACATAAGGTGGAAAATACACTTCCTCTCAAATTTAAATAGTATCGCAAGTCAATGTTTTAAAAGAATATTCAAGTTAGGCACGTATCTTGCGATAAGACATACTTTCAAGGCATAGAGTTACGCCAATTACCAATGAGAGAGGGAGTAAGCTCGTG (double strand) [vpa1550 promoter (promoter-1)]”, the binding entry is recorded as “binds”.
With “TGCCTGCAGGTCGACGATAGACATACTTTCAAGGCATAGAGTTACGCCAATTACCAATGAGAGAGGGAGTAAGCTCGTG (double strand) [vpa1550 promoter-4]”, the binding result is recorded as “binds”.
Then “TGCCTGCAGGTCGACGATTAGAGTTTTCCCCCTAATTTTTTTGCTTTCCGTAAACCGGAAGTTTGGTTTCCACTCTTGTTTGTAAGTCATTGATAAATATAAATAAAATTTATGGCACGTATCTTGTTTGTATCTTGGCGTATTCGAGCCGACTGTAAGGAAAGATGCATG (double strand) [vpa0264 promoter-1]”, with “binds”.
Next, “CATCTTAGTCTCCTTAGTTTATCACTATTTCTTTCAGGCCTTGGGATATTCCCTAGTCACTAACTAGAGGCGGTCGCTTGCCACTAATGATTAATTTGAAAATTAAAAATTTTCTAAAAAAGATCAAAATTGATGATTTTTAGTGACTTGCATTCCACTAAGTTGGGGTTTGCTACCGTTTTAGCGTTAGTTTCCGATGTGCTTTGATCGGCATCGTCGACCTGCAGGCA (double strand) [vpa1548 promoter (promoter-1)]”: “binds”.
Next, “TGCCTGCAGGTCGACGATTCCACTCTTGTTTGTAAGTCATTGATAAATATAAATAAAATTTATGGCACGTATCTTGTTTGTATCTTGGCGTATTCGAGCCGACTGTAAGGAAAGATGCATG (double strand) [vpa0264 promoter-2]”: “binds”; “TGCCTGCAGGTCGACGATCAAGTCAATGTTTTAAAAGAATATTCAAGTTAGGCACGTATCTTGCGATAAGACATACTTTCAAGGCATAGAGTTACGCCAATTACCAATGAGAGAGGGAGTAAGCTCGTG (double strand) [vpa1550 promoter-3]”: “binds”.
For “CATGCATCTTTCCTTACAGTCGGCTCGAATACGCCAAGATACAAACAAGATACATCGTCGACCTGCAGGCA (double strand) [vpa0264 promoter-3]”, the binding result is “no binding”.
For “TGCCTGCAGGTCGACGATGTTTGTCCTGTCGAAAGAATTCCTAATAACAGTATCCACTTTGAGGAAATTAGAGTTTTCCCCCTAATTTTTTTGCTTTCCGTAAACCGGAAGTTTGGTTTCCACTCTTGTTTGTAAGTCATTGATAAATATAAATAAAATTTATGGCACGTATCTTGTTTGTATCTTGGCGTATTCGAGCCGACTGTAAGGAAAGATGCATG (double strand) [vpa0264 promoter]”, the binding result is listed as “binds”.
“TGCCTGCAGGTCGACGATGGAACACATAAGGTGGAAAATACACTTCCTCTCAAATTTAAATAGTATCGCAAGTCAATGTTTTAAAAGAATATTCAAGTTAGGCACGTATCTTGCGATAAGACATACTTTCAAGGCATAGAGTTACGCCAATTACCAATGAGAGAGGGAGTAAGCTCGTG (double strand) [vpa1550 promoter-2]”: the binding entry is recorded as “binds”.
